B1: Protein S100-G, residues 1 to 79; numbered along this chain, P02633 (parent)
chain: MSAKKSPEELKGIFEKYAAKEGDPNQLSKEELKLLLQTEFPSLLKGPSTLDELFEELDKNGDGEVSFEEFQVLVKKISQ

± gives the uncertainty stated by the source.

This series covers variants of B1. The series is described as follows: abundance fitness (aPCA) (normalised: wild type 0, dead -1); higher = more abundant; growth selection in yeast, the domain comes from the species named. To be noted: Bos taurus.
For the variant MSAKKSPEELKGTFEKYAAKEGDPNQLSKEELKLLLQTEFPSLLKGPSTLDELFEELDKNGDGEVSFEEFQVLVKKISQ, the abundance fitness was -0.17 ± 0.079.
With MSAKKSPEELKGRFEKYAAKEGDPNQLSKEELKLLLQTEFPSLLKGPSTLDELFEELDKNGDGEVSFEEFQVLVKKISQ, the abundance fitness was -0.409 ± 0.068.
On to MSAKKSPEELKGGFEKYAAKEGDPNQLSKEELKLLLQTEFPSLLKGPSTLDELFEELDKNGDGEVSFEEFQVLVKKISQ, for which the abundance fitness was -0.959 ± 0.079.
With MSAKKSPEELKGFFEKYAAKEGDPNQLSKEELKLLLQTEFPSLLKGPSTLDELFEELDKNGDGEVSFEEFQVLVKKISQ the figure was -0.201 ± 0.081; with MSAKKSPEELKGKFEKYAAKEGDPNQLSKEELKLLLQTEFPSLLKGPSTLDELFEELDKNGDGEVSFEEFQVLVKKISQ, -0.173 ± 0.092; with MSAKKSPEELKGHFEKYAAKEGDPNQLSKEELKLLLQTEFPSLLKGPSTLDELFEELDKNGDGEVSFEEFQVLVKKISQ, -0.287 ± 0.08.
Consider MSAKKSPEELKGVFEKYAAKEGDPNQLSKEELKLLLQTEFPSLLKGPSTLDELFEELDKNGDGEVSFEEFQVLVKKISQ, for which the abundance fitness was -0.123 ± 0.071.
Take MSAKKSPEELKGLFEKYAAKEGDPNQLSKEELKLLLQTEFPSLLKGPSTLDELFEELDKNGDGEVSFEEFQVLVKKISQ: the abundance fitness is -0.03 ± 0.066.
Consider MSAKKSPEELKGQFEKYAAKEGDPNQLSKEELKLLLQTEFPSLLKGPSTLDELFEELDKNGDGEVSFEEFQVLVKKISQ, for which the abundance fitness is -0.219 ± 0.083.
For MSAKKSPEELKGSFEKYAAKEGDPNQLSKEELKLLLQTEFPSLLKGPSTLDELFEELDKNGDGEVSFEEFQVLVKKISQ, the abundance fitness was -0.26 ± 0.068.
MSAKKSPEELKGNFEKYAAKEGDPNQLSKEELKLLLQTEFPSLLKGPSTLDELFEELDKNGDGEVSFEEFQVLVKKISQ: the abundance fitness is -0.631 ± 0.084.
For MSAKKSPEELKGMFEKYAAKEGDPNQLSKEELKLLLQTEFPSLLKGPSTLDELFEELDKNGDGEVSFEEFQVLVKKISQ, the abundance fitness is 0.053 ± 0.091.
With MSAKKSPEELKGPFEKYAAKEGDPNQLSKEELKLLLQTEFPSLLKGPSTLDELFEELDKNGDGEVSFEEFQVLVKKISQ the figure was -0.424 ± 0.08; with MSAKKSPEELKGWFEKYAAKEGDPNQLSKEELKLLLQTEFPSLLKGPSTLDELFEELDKNGDGEVSFEEFQVLVKKISQ, -0.231 ± 0.089.
As for MSAKKSPEELKGISEKYAAKEGDPNQLSKEELKLLLQTEFPSLLKGPSTLDELFEELDKNGDGEVSFEEFQVLVKKISQ, the abundance fitness was -1.22 ± 0.071.
With MSAKKSPEELKGILEKYAAKEGDPNQLSKEELKLLLQTEFPSLLKGPSTLDELFEELDKNGDGEVSFEEFQVLVKKISQ, the abundance fitness is -0.73 ± 0.062.
With MSAKKSPEELKGIPEKYAAKEGDPNQLSKEELKLLLQTEFPSLLKGPSTLDELFEELDKNGDGEVSFEEFQVLVKKISQ the figure was -1.33 ± 0.079.
With MSAKKSPEELKGIAEKYAAKEGDPNQLSKEELKLLLQTEFPSLLKGPSTLDELFEELDKNGDGEVSFEEFQVLVKKISQ the figure was -0.98 ± 0.072.
Take MSAKKSPEELKGIKEKYAAKEGDPNQLSKEELKLLLQTEFPSLLKGPSTLDELFEELDKNGDGEVSFEEFQVLVKKISQ: the abundance fitness is -1.18 ± 0.089.
For the variant MSAKKSPEELKGIGEKYAAKEGDPNQLSKEELKLLLQTEFPSLLKGPSTLDELFEELDKNGDGEVSFEEFQVLVKKISQ, the abundance fitness is -1.53 ± 0.086.
Regarding MSAKKSPEELKGINEKYAAKEGDPNQLSKEELKLLLQTEFPSLLKGPSTLDELFEELDKNGDGEVSFEEFQVLVKKISQ, the abundance fitness is -1.2 ± 0.1.
Take MSAKKSPEELKGIIEKYAAKEGDPNQLSKEELKLLLQTEFPSLLKGPSTLDELFEELDKNGDGEVSFEEFQVLVKKISQ: the abundance fitness was -0.504 ± 0.086.
As for MSAKKSPEELKGIQEKYAAKEGDPNQLSKEELKLLLQTEFPSLLKGPSTLDELFEELDKNGDGEVSFEEFQVLVKKISQ, the abundance fitness is -1.29 ± 0.086.
For MSAKKSPEELKGIDEKYAAKEGDPNQLSKEELKLLLQTEFPSLLKGPSTLDELFEELDKNGDGEVSFEEFQVLVKKISQ, the abundance fitness was -1.23 ± 0.099.
With MSAKKSPEELKGIVEKYAAKEGDPNQLSKEELKLLLQTEFPSLLKGPSTLDELFEELDKNGDGEVSFEEFQVLVKKISQ, the abundance fitness was -0.729 ± 0.075.
Take MSAKKSPEELKGIWEKYAAKEGDPNQLSKEELKLLLQTEFPSLLKGPSTLDELFEELDKNGDGEVSFEEFQVLVKKISQ: the abundance fitness is -0.088 ± 0.083.
For the variant MSAKKSPEELKGICEKYAAKEGDPNQLSKEELKLLLQTEFPSLLKGPSTLDELFEELDKNGDGEVSFEEFQVLVKKISQ, the abundance fitness is -1 ± 0.095.
For MSAKKSPEELKGIMEKYAAKEGDPNQLSKEELKLLLQTEFPSLLKGPSTLDELFEELDKNGDGEVSFEEFQVLVKKISQ, the abundance fitness is -0.589 ± 0.084.
With MSAKKSPEELKGIREKYAAKEGDPNQLSKEELKLLLQTEFPSLLKGPSTLDELFEELDKNGDGEVSFEEFQVLVKKISQ, the abundance fitness was -1.37 ± 0.07.
With MSAKKSPEELKGITEKYAAKEGDPNQLSKEELKLLLQTEFPSLLKGPSTLDELFEELDKNGDGEVSFEEFQVLVKKISQ the figure was -1.33 ± 0.075; with MSAKKSPEELKGIEEKYAAKEGDPNQLSKEELKLLLQTEFPSLLKGPSTLDELFEELDKNGDGEVSFEEFQVLVKKISQ, -1.32 ± 0.1.
Take MSAKKSPEELKGIHEKYAAKEGDPNQLSKEELKLLLQTEFPSLLKGPSTLDELFEELDKNGDGEVSFEEFQVLVKKISQ: the abundance fitness is -0.971 ± 0.093.
MSAKKSPEELKGIYEKYAAKEGDPNQLSKEELKLLLQTEFPSLLKGPSTLDELFEELDKNGDGEVSFEEFQVLVKKISQ: the abundance fitness was 0.028 ± 0.086.
Turning to MSAKKSPEELKGIFIKYAAKEGDPNQLSKEELKLLLQTEFPSLLKGPSTLDELFEELDKNGDGEVSFEEFQVLVKKISQ, the abundance fitness stood at 0.078 ± 0.081.

These data come from the Human Domainome abundance scans (Beltran et al. 2025).
